The values below are quoted from earlier work in article PMC3159772.

By Kd is commonly meant the free concentration of one partner at which half of the binding sites on the other are occupied at equilibrium, for simple one-to-one binding.

In data set [1] the target is NTS2 (Homo sapiens) (UniProt O95665).
The target of data set [2] is NTS1 (Homo sapiens) (UniProt P30989).
Sequence of UniProt P30989 (P30989 whole entry): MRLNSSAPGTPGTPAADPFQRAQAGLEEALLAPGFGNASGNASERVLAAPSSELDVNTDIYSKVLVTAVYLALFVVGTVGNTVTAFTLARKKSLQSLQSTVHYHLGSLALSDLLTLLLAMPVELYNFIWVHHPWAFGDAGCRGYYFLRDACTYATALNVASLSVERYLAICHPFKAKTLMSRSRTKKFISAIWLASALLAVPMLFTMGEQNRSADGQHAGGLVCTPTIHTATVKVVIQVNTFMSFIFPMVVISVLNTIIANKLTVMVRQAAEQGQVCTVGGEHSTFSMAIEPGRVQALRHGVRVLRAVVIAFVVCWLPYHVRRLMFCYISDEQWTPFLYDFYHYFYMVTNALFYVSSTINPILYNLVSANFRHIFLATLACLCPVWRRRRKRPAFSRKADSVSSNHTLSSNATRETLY

Sequence of UniProt O95665 (O95665 whole entry): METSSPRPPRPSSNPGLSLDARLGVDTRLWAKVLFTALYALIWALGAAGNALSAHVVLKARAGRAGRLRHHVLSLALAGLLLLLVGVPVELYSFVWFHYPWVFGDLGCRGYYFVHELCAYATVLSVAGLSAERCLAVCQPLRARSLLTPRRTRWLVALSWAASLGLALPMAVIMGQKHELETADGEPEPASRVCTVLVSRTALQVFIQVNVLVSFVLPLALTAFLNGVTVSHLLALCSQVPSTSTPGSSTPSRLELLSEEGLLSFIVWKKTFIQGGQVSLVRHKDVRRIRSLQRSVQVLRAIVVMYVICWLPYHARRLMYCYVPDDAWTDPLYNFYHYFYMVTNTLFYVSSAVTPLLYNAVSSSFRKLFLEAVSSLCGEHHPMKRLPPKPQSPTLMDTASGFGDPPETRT

With NT69L (from UniProt P30990), the Kd in data set [1] is 2.1 nM; in data set [2], 3.1 nM.
